The values below come from paper doi:10.1101/669069.

Several values for one entry are separate records, joined by “and”; a condition that tells them apart may be missing. Equal entries are not always repeated.

The nature of data set [1]: stopped-flow tryptophan fluorescence, urea-induced dissociation kinetics. The note with it: other: stopped-flow tryptophan fluorescence.
The target of data set [2] is Methionine S-adenosyltransferase (MAT) from U. urealiticum (U. urealiticum). The data set can be described thus: native MS.
Data set [3] shares this target. The data set can be described thus: crystal structure.
Data set [4] has the same target. The data set can be described thus: crystal structure. The source holds these as a separate data set.
The target is the same in data set [5]. The data set can be described thus: SEC-MALS. On the technique in general: Size exclusion chromatography separates by hydrodynamic size, large species first.
Data set [6] has the same target. The data set can be described thus: SEC-MALS. This is another data set of the same source.

For the substance “Methionine S-adenosyltransferase (MAT) from U. urealiticum”, the “kobs of urea-induced tetramer dissociation (3 M urea, with SAM)” value in data set [1] was “kobs ∼ 0.1sec^-1”.
As to “Methionine S-adenosyltransferase (MAT) from U. urealiticum (enzyme)”, the stoichiometry N in data set [2] is 4 and 2; in data set [3], 4; in data set [4], 4; in data set [5], 4 and 2; in data set [6] it was 4.

In general, stoichiometry N refers to a count of units in the complex or per binding partner.
